Values of other authors in PMC3321547 (Biochemistry, 2009).

Test system: DKH960
Conditions: folded DKH960, ref [6]

B1: DKH960: folded kinesin heavy chain construct (protein, UniProt P17210 1-960, looked up, fragment)
chain: MSAEREIPAEDSIKVVCRFRPLNDSEEKAGSKFVVKFPNNVEENCISIAGKVYLFDKVFKPNASQEKVYNEAAKSIVTDVLAGYNGTIFAYGQTSSGKTHTMEGVIGDSVKQGIIPRIVNDIFNHIYAMEVNLEFHIKVSYYEIYMDKIRDLLDVSKVNLSVHEDKNRVPYVKGATERFVSSPEDVFEVIEEGKSNRHIAVTNMNEHSSRSHSVFLINVKQENLENQKKLSGKLYLVDLAGSEKVSKTGAEGTVLDEAKNINKSLSALGNVISALADGNKTHIPYRDSKLTRILQESLGGNARTTIVICCSPASFNESETKSTLDFGRRAKTVKNVVCVNEELTAEEWKRRYEKEKEKNARLKGKVEKLEIELARWRAGETVKAEEQINMEDLMEASTPNLEVEAAQTAAAEAALAAQRTALANMSASVAVNEQARLATECERLYQQLDDKDEEINQQSQYAEQLKEQVMEQEELIANARREYETLQSEMARIQQENESAKEEVKEVLQALEELAVNYDQKSQEIDNKNKDIDALNEELQQKQSVFNAASTELQQLKDMSSHQKKRITEMLTNLLRDLGEVGQAIAPGESSIDLKMSALAGTDASKVEEDFTMARLFISKMKTEAKNIAQRCSNMETQQADSNKKISEYEKDLGEYRLLISQHEARMKSLQESMREAENKKRTLEEQIDSLREECAKLKAAEHVSAVNAEEKQRAEELRSMFDSQMDELREAHTRQVSELRDEIAAKQHEMDEMKDVHQKLLLAHQQMTADYEKVRQEDAEKSSELQNIILTNERREQARKDLKGLEDTVAKELQTLHNLRKLFVQDLQQRIRKNVVNEESEEDGGSLAQKQKISFLENNLDQLTKVHKQLVRDNADLRCELPKLEKRLRCTMERVKALETALKEAKEGAMRDRKRYQYEVDRIKEAVRQKHLGRRGPQAQIAKPIRSGQGAIAIRGGGA
  maximum extent of inhibition of ADP release: over 50%
